# Source: article PMC10786891, “Massively parallel profiling of RNA-targeting CRISPR-Cas13d”
# Changes are numbered by the printed parent chain.
# T1: EsCas13d, nuclease-dead (Eubacterium siraeum, UniProt B0MS50, R295A;H300A;R849A;H854A)
# T1 sequence: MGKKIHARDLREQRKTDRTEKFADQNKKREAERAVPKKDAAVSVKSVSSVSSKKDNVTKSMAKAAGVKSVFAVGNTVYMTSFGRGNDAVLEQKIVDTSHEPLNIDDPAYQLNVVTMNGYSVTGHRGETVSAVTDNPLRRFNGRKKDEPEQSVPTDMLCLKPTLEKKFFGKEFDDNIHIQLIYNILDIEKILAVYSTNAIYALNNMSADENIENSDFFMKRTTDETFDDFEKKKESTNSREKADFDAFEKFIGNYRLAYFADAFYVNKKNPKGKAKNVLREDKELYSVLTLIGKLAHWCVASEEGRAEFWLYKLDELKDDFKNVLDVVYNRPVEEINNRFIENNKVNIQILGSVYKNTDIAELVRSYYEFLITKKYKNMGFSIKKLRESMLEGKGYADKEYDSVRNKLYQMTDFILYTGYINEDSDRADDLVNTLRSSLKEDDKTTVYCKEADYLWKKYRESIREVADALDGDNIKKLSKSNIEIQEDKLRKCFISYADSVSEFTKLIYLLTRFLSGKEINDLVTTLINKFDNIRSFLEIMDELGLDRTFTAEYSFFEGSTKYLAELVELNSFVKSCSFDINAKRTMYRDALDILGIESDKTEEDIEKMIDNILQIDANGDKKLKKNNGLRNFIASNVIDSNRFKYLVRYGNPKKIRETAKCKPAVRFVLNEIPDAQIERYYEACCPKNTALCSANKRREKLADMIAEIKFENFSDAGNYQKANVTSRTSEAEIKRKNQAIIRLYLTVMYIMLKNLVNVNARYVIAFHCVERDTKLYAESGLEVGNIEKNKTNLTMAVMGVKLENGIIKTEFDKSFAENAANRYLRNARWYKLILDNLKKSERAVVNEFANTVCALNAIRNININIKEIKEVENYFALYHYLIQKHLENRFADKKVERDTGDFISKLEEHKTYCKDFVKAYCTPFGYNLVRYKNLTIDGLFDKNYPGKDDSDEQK
# B1: target 2 MT 5'PFS GCG 3'PFS ACG (mixed)
# RNA 1: CACCCGUGCAAAAUUGCAGGGGUCUAAAACCUUCUCCAAAUUGUUUCAUCCU
# RNA 2: GGGAAUGGAUCCACAUCUACGAAUUCGCGAGGAUGAAACAAUUUGGAGAAGACGAGAUCGGAAGAGCACACGU
# B2: target 2 MT 5'PFS GGG 3'PFS UAC (mixed)
# RNA 1: B1 RNA 1
# RNA 2: B1 RNA 2 with C28G, A52U, C53A, G54C
# B3: target 2 MT 5'PFS GCG 3'PFS ACA (mixed)
# RNA 1: B1 RNA 1
# RNA 2: B1 RNA 2 with G54A
# B4: target 2 MT 5'PFS CGC 3'PFS UUC (mixed)
# RNA 1: B1 RNA 1
# RNA 2: B1 RNA 2 with G27C, C28G, G29C, A52U, C53U, G54C
# B5: target 2 MT 5'PFS CAU 3'PFS CUA (mixed)
# RNA 1: B1 RNA 1
# RNA 2: B1 RNA 2 with G27C, C28A, G29U, A52C, C53U, G54A
# B6: target 2 MT 5'PFS AUG 3'PFS CCG (mixed)
# RNA 1: B1 RNA 1
# RNA 2: B1 RNA 2 with G27A, C28U, A52C
# B7: target 2 MT 5'PFS UAA 3'PFS CCA (mixed)
# RNA 1: B1 RNA 1
# RNA 2: B1 RNA 2 with G27U, C28A, G29A, A52C, G54A
# B8: target 2 MT 5'PFS CGC 3'PFS CGA (mixed)
# RNA 1: B1 RNA 1
# RNA 2: B1 RNA 2 with G27C, C28G, G29C, A52C, C53G, G54A
# B9: target 2 MT 5'PFS AUG 3'PFS CCA (mixed)
# RNA 1: B1 RNA 1
# RNA 2: B1 RNA 2 with G27A, C28U, A52C, G54A
# B10: target 2 MT 5'PFS GCG 3'PFS ACU (mixed)
# RNA 1: B1 RNA 1
# RNA 2: B1 RNA 2 with G54U
# B11: target 2 MT 5'PFS GAA 3'PFS AAG (mixed)
# RNA 1: B1 RNA 1
# RNA 2: B1 RNA 2 with C28A, G29A, C53A
# B12: target 2 MT 5'PFS AUU 3'PFS CAU (mixed)
# RNA 1: B1 RNA 1
# RNA 2: B1 RNA 2 with G27A, C28U, G29U, A52C, C53A, G54U
# B13: target 2 MT 5'PFS ACC 3'PFS CUG (mixed)
# RNA 1: B1 RNA 1
# RNA 2: B1 RNA 2 with G27A, G29C, A52C, C53U
# B14: target 2 MT 5'PFS GCG 3'PFS ACC (mixed)
# RNA 1: B1 RNA 1
# RNA 2: B1 RNA 2 with G54C
# B15: target 2 MT 5'PFS ACC 3'PFS CUC (mixed)
# RNA 1: B1 RNA 1
# RNA 2: B1 RNA 2 with G27A, G29C, A52C, C53U, G54C
# B16: target 2 MT 5'PFS UAA 3'PFS CCG (mixed)
# RNA 1: B1 RNA 1
# RNA 2: B1 RNA 2 with G27U, C28A, G29A, A52C
# B17: target 2 MT 5'PFS GGG 3'PFS UAG (mixed)
# RNA 1: B1 RNA 1
# RNA 2: B1 RNA 2 with C28G, A52U, C53A
# B18: target 2 MT 5'PFS UAG 3'PFS AUC (mixed)
# RNA 1: B1 RNA 1
# RNA 2: B1 RNA 2 with G27U, C28A, C53U, G54C
# B19: target 2 MT 5'PFS CGC 3'PFS CGG (mixed)
# RNA 1: B1 RNA 1
# RNA 2: B1 RNA 2 with G27C, C28G, G29C, A52C, C53G
# B20: target 2 MT 5'PFS UUG 3'PFS CUA (mixed)
# RNA 1: B1 RNA 1
# RNA 2: B1 RNA 2 with G27U, C28U, A52C, C53U, G54A
# B21: target 2 MT 5'PFS GAA 3'PFS AAU (mixed)
# RNA 1: B1 RNA 1
# RNA 2: B1 RNA 2 with C28A, G29A, C53A, G54U
# B22: target 2 MT 5'PFS GCG 3'PFS UAC (mixed)
# RNA 1: B1 RNA 1
# RNA 2: B1 RNA 2 with A52U, C53A, G54C
# B23: target 2 MT 5'PFS GCG 3'PFS UAA (mixed)
# RNA 1: B1 RNA 1
# RNA 2: B1 RNA 2 with A52U, C53A, G54A
# B24: target 2 MT 5'PFS UAG 3'PFS AUG (mixed)
# RNA 1: B1 RNA 1
# RNA 2: B1 RNA 2 with G27U, C28A, C53U
# B25: target 2 MT 5'PFS CAG 3'PFS CCA (mixed)
# RNA 1: B1 RNA 1
# RNA 2: B1 RNA 2 with G27C, C28A, A52C, G54A
# B26: target 2 MT 5'PFS CGC 3'PFS CGC (mixed)
# RNA 1: B1 RNA 1
# RNA 2: B1 RNA 2 with G27C, C28G, G29C, A52C, C53G, G54C
# B27: target 2 MT 5'PFS ACC 3'PFS CUU (mixed)
# RNA 1: B1 RNA 1
# RNA 2: B1 RNA 2 with G27A, G29C, A52C, C53U, G54U
# B28: target 2 MT 5'PFS GAA 3'PFS AAA (mixed)
# RNA 1: B1 RNA 1
# RNA 2: B1 RNA 2 with C28A, G29A, C53A, G54A
# B29: target 2 MT 5'PFS GGG 3'PFS UAU (mixed)
# RNA 1: B1 RNA 1
# RNA 2: B1 RNA 2 with C28G, A52U, C53A, G54U
# B30: target 2 MT 5'PFS UGU 3'PFS UUU (mixed)
# RNA 1: B1 RNA 1
# RNA 2: B1 RNA 2 with G27U, C28G, G29U, A52U, C53U, G54U
# B31: target 2 MT 5'PFS AUG 3'PFS CCU (mixed)
# RNA 1: B1 RNA 1
# RNA 2: B1 RNA 2 with G27A, C28U, A52C, G54U
# B32: target 2 MT 5'PFS CAU 3'PFS CUU (mixed)
# RNA 1: B1 RNA 1
# RNA 2: B1 RNA 2 with G27C, C28A, G29U, A52C, C53U, G54U
# B33: target 2 MT 5'PFS GAA 3'PFS AAC (mixed)
# RNA 1: B1 RNA 1
# RNA 2: B1 RNA 2 with C28A, G29A, C53A, G54C
# B34: target 2 MT 5'PFS UAG 3'PFS AUA (mixed)
# RNA 1: B1 RNA 1
# RNA 2: B1 RNA 2 with G27U, C28A, C53U, G54A
# B35: target 2 MT 5'PFS CAC 3'PFS AGU (mixed)
# RNA 1: B1 RNA 1
# RNA 2: B1 RNA 2 with G27C, C28A, G29C, C53G, G54U
# B36: target 1 insA 3' of 21,insG 3' of 9 (mixed)
# RNA 1: CACCCGUGCAAAAAUGCAGGGGUCUAAAACUGAGCGGAUAACCUCUCUAUGG
# RNA 2: GGGAAUGGAUCCACAUCUACGAAUUCGUACCAAUAGAGAGGUUAGUCCGCUCACCGAGAUCGGAAGAGCACACGU
# B37: target 1 insC 3' of 19,insG 3' of 4 (mixed)
# RNA 1: B36 RNA 1
# RNA 2: B36 RNA 2 with A33U, U34C, G45U, U46C, C48G, G49C, C50G
# B38: target 1 insA 3' of 13,insU 3' of 13 (mixed)
# RNA 1: B36 RNA 1
# RNA 2: GGGAAUGGAUCCACAUCUACGAAUUCGUACCAUAGAGAGAUGUUAUCCGCUCACCGAGAUCGGAAGAGCACACGU
# Biological target: T1, EsCas13d, nuclease-dead
# Test: crRNA (strand 1, pre-loaded); Mg2+; 40 mM Tris-HCl pH 7.5, 150 mM NaCl, 6 mM MgCl2, 1 mM DTT, 0.1% Tween-20, 0.2 mg/ml BSA; 25 C; 10 min per concentration, then washed
# Conditions: tags: His6-TwinStrep-SUMO cleaved; N-terminal SNAP kept (SNAP-Surface 488); label: 3' end held by stalled T7 RNA polymerase
row,Binder,Kd [nM]
1,B1,14 ± 2.1
2,B2,9.6 ± 0.7
3,B3,16 ± 4
4,B4,12.1 ± 1.9
5,B5,4.1 ± 0.6
6,B6,9.5 ± 1.1
7,B7,20 ± 6
8,B8,6.7 ± 2.1
9,B9,23.7 ± 3.5
10,B10,13.8 ± 1.2
11,B11,8.2 ± 2.1
12,B12,5.7 ± 0.7
13,B13,9 ± 1.1
14,B14,30 ± 8
15,B15,7.4 ± 1.2
16,B16,5.6 ± 0.6
17,B17,8 ± 0.6
18,B18,3.3 ± 0.7
19,B19,7.3 ± 1.2

row,Binder,Kd [nM]
1,B20,14.9 ± 1.7
2,B21,16 ± 7
3,B22,13.1 ± 3.1
4,B23,9.6 ± 2.4
5,B24,3.21 ± 0.28
6,B25,10.1 ± 1.4
7,B26,4.1 ± 0.4
8,B27,6.3 ± 1.6
9,B28,5.7 ± 1.1
10,B29,9.6 ± 1
11,B30,50 ± 13
12,B31,~70
13,B32,4.6 ± 0.6
14,B33,11 ± 1.6
15,B34,2.63 ± 0.33
16,B35,2.7 ± 0.6
17,B36,46 ± 6
18,B37,21.5 ± 1.3
19,B38,14.2 ± 1.3
